# From the DeepSol protein solubility set
# Assay: soluble on expression in E. coli; label from the status in PepcDB or PDB records
row,Sequence,soluble on expression in E. coli
1,MPKMIMVNKKASESQVMELEKRNYNNPVVLCGFAGSTPTGVLAASYIVETLGMHQVAHLISQHIPPVAVFVGGKLRHPFRIYANNSNTVLVAMCEVPISSAHIYEISNTLMNWIDQVGASEIVIMEGSPANGIPEERPVFAVAEKPKLDKFKKAGIQPADSAIIAGMGGGILNECLVRKITGLSFITPTSVDIPDPGAVLSIIEAINKAYNLKIKTDLLEEQVKALDEQIKKIEEQYKELQEKQKEPQSMYG,soluble
2,GTDQYTLLANRVQNAVEARQSATEAERRRHRLEQILKTVPSCVVQLDRDGQFVFANQRAIDVLGLSQSELKDRLYNDPEWEIRDLDGHPIPDAELPFRQVLETGQPLSDARHTIHWPDGTEKVLSVNGAPLFDDD,not soluble
3,MERVLITGGAGFIGSHLVDDLQQDYDVYVLDNYRTGKRENIKSLADDHVFELDIREYDAVEQIMKTYQFDYVIHLAALVSVAESVEKPILSQEINVVATLRLLEIIKKYNNHIKRFIFASSAAVYGDLPDLPKSDQSLILPLSPYAIDKYYGERTTLNYCSLYNIPTAVVKFFNVFGPRQDPKSQYSGVISKMFDSFEHNKPFTFFGDGLQTRDFVYVYDVVQSVRLIMEHKDAIGHGYNIGTGTFTNLLEVYRIIGELYGKSVEHEFKEARKGDIKHSYADISNLKALGFVPKYTVETGLKDYFNFEVDNIEEVTAKEVEMS,not soluble
4,MMDVSGVGFPSKVPWKKMSAEELENQYCPSRWVVRLGAEEALRTYSQIGIEATTRARATRKSLLHVPYGDGEGEKVDIYFPDESSEALPFFLFFHGGYWQSGSKDESAFMVHPLTAQGVAVVIVAYGIAPKGTLDHMVDQVTRSVAFVQKRYPSNKGIYLCGHSAGAHLAAMMLLADWTKHGVTPNLRGFFLVSGVFDLEPIVYTSQNVALQLTLEDAQRNNPQLKVAQAQPVDPTCRVLVVVGQFDSPEFHRQSWEFYQVLPVQTLCQGEWKASFEELHDVDHFEIVENLTQKDNVLTQIILKTIFQ,soluble
5,MGSDKIHHHHHHMAPYPYKVQTTVPELQYENFDGAKFGYMFWPVQNGTNEVRGRVLLIHGFGEYTKIQFRLMDHLSLNGYESFTFDQRGAGVTSPGRSKGVTDEYHVFNDLEHFVEKNLSECKAKGIPLFMWGHSMGGGICLNYACQGKHKNEISGYIGSGPLIILHPHTMYNKPTQIIAPLLAKFLPRVRIDTGLDLKGITSDKAYRAFLGSDPMSVPLYGSFRQIHDFMQRGAKLYKNENNYIQKNFAKDKPVIIMHGQDDTINDPKGSEKFIQDCPSADKELKLYPGARHSIFSLETDKVFNTVFNDMKQWLDKHTTTEAKP,not soluble
6,MAASPLVVQKTEEEWRAVLSPEQFRILRQKGTEKPGTGEYDKFFEEGIFDCVGCKTPLYKSTTKFDSGCGWPAFFEGLPGAINRTPDPDGRRTEITCAACDGHLGHVFKGEGYGNPTDERHCVNSVSISFNPAKSSSII,soluble
7,TTFTTRDGTQIYYKDWGSGQPIVFSHGWPLNADSWESQMIFLAAQGYRVIAHDRRGHGRSSQPWSGNDMDTYADDLAQLIEHLDLRDAVLFGFSTGGGEVARYIGRHGTARVAKAGLISAVPPLMLKTEANPGGLPMEVFDGIRQASLADRSQLYKDLASGPFFGFNQPGAKSSAGMVDWFWLQGMAAGHKNAYDCIKAFSETDFTEDLKKIDVPTLVVHGDADQVVPIEASGIASAALVKGSTLKIYSGAPHGLTDTHKDQLNADLLAFIKG,soluble
8,MGSDKIHHHHHHMKIVYIITQATWGGAQAHLYSLIKAQVMRGNAVALVYGVEGRLSASVAKEFQDVQVVRVASLVHPIAPLSDLKAIYTLRKLVKNWQPDIIHLHSSKAGMIGRLATIRLPMKVIFTVHGWGFTPGVGKKRQLLMKTIEKALSRLTTAYICVSQFDYDLGVQSGVITSAHPARVIHNGVTALTGANKATSSEVFVLSMAARFDTPKRQDILIQALTYLPENLPIVCHFLGDGPSIEACKTLTHQLNLDGKVNFYGVVDNVQKYYSQSDVGVLISDYEALPISLVEALAQGLPIIASNVGGIQELIDHNGFLVTNDARQIAEKILTLYQSKKIAEVKTNSYQMYQRHYTEHEMLEQTQAYYLRCLA,not soluble
9,MGSDKIHHHHHHMTQLAPDSSIINAQACLSLDEAYEACRKETAQWAKTFYLGTMLLPSIKRRAIWAIYVWCRRTDELMDSAEAQTRPVSELANRLDQWEERTRAMFAGQVLDGLDAVMADTLERFPQSIQPYLDMIEGQRMDLNQHRYATFQQLELYCYRVAGTVGLMTQHVMGLDPAYTTAPWSSSPETSDAAIALGIANQLTNILRDVGEDRGRGRIYIPQEDLDRFGYSEADLMAGRLNSAWKDLMAFQLERAREWFARSEAGVRWLSQDARWPVWASLRLYRGILDSIERLDYDVFNNRAYVSRWMKLVDLPLSYLMAQAR,not soluble
10,MSTFSFIIVNNEQVRIHDIQGKSHMSPYNGKKVNNVEGVVTALDKNGFYIEDNQPDNDPATSEGMYVYKKDANVAVGDLIQVDGVVEEYVGPGYAERFETDLTTTEIKASRVVVIAKDQSLPAPIVLGENGVKIPDQIIDNDAFGLFDPNEDAIDFYESIEGMRVTMPTPKVIAPQKNGNLYVTVKNGGDKIVTQYGTPLLDENQLNPERLSVKVPRDYVAKVGDTFTGDITGVVGYDYGSFRISPITELPAVVDGGFKQVGANIQPRLDKLTVATYNIENFSANKKETTDEKVKALAYSIKYNLKMPDIIGVEEMQDNNGSINDLEHHHHHH,not soluble
11,MGSDKIHHHHHHMNWDNARFFLALARTGTLRGAAAQLNVDQATVGRRIAALEDELSARLFLRTPALYVLTTAGEALLEPAETMERASLTIERRVMGLDEQLAGTVRIATTDSLGKRFVIPAIARLRRRHAGIDVVCVTSTEIANLTRREADLAIRTLRPESPDLIVRRLGHLETGIYASRHYLAERGEPVAGSAFDGHDLVMYQQPVMPTMWDALCGEPTSRGRVMFQTSSTMMLVEAALAGLGIAELPCFRAEAEPELVRLMARRCNHFDVWLVAHADLYKTARVQAVIEAVVEEFATAAPSTR,not soluble
12,TLNIVITGAKGFVGKNLKADLTSTTDHHIFEVHRQTKEEELESALLKADFVVHLAGVNRPEHDKEFSLGNVSYLDHVLDILTRNTKKPAILLSSSIQATQDNPYGESKLQGEQLLREYAEEYGNTVYIYRWPNLFGKWCKPNYNSVIATFCYKIARNEEIQVNDRNVELTLNYVDDIVAEIKRAIEGTPTIENGVPTVPNVFKVTLGEIVDLLYKFKQSRLDRTLPKLDNLFEKDLYSTYLSYLPSTDFSYPLLMNVDDRGSFTEFIKTPDRGQVSVNISKPGITKGNHWHHTKNEKFLVVSGKGVIRFRHVNDDEIIEYYVSGDKLEVVDIPVGYTHNIENLGDTDMVTIMWVNEMFDPNQPDTYFLEV,soluble
13,MGSDKIHHHHHHMAKVEELTPQQLSETDLKPRGRVYPSPISWRDQFLYQLVLDRFSDDNENQRELFDHTNLAKFQVKDKAGWMAAGTKFVGGTLRGIKSKLDYLQRLGVTTLWINPPWQQRSELEAYHSDRIQEFLDIDPHFGTRQDLRDLIDAAHDRRMYVILDVIYNQNADNWFHRNDVIAALARVYQYWIALSDCDGLRIDSLKHVSPEDSRKFCTAIREYAESIDKDNFLLTGEITSGSMAGAYIDIIARNFSAVLDIAQTPNELAAFAKGLVHPKQFFDLYSENNLAGEYRQIGTYHVSILDDYEMSFRTNKQRFAAYSNVPHLYEQVAHAVGVQLTMPGIPAIYYGTEQAFDGNEGYHDYSIEGRKFAEDRYIKEAMFGGAFGAFQTADCHFFDIDHPTYLRIAAIARIRNSHDKIGKALRRGHHYLRETSFFNSPFSIPGQGELVAWSQTLFDTEVLMVLNTNGLENRGAEVTVDTYMHPQDSTMTFLYKSDWSDSYLRHPPRDQTVAVQHHNDRRATVRIDLPPSGMAILA,not soluble
14,MHILVVSVNYRTAPVEFREKLTFQAAELERAMTTLQNQKSVLENVIVSTCNRTEIYAVVDQLHTGRYYIKKFLADWFQLEIEEVAPYLTIFEQDGAIDHLFRVTCGLDSMVVGETQILGQIKDSFLEAQQVKATGTIFNELFKQVITLAKRAHSETTIGESAMSVSYAAVELGKKIFGELTDCHVLILGAGKMGELALQNLYGSGARKVTVMNRTLSKAEIMAEKYMGHAKPLSELQCALLEADILISSTGASDYVITKEMMTKVEKMRSGRPLFMVDIAVPRDIDPAIDELEGSFLYDIDDLQGVVEANRAERLKEAEKIQFMIEEEIVLFKTWLSTLGVVPLISALRDKALAIQSETMESLERKIPNLSDRERKVISKHTKSIINQLLKDPILVAKEIAAEEGADEKLALFAKIFDLEMEDVESRAEEVEHKRVWTPSVPSL,not soluble
15,SSEDLAKQLASYKAQLQQVEAALSGNGENEDLLKLKKDLQEVIELTKDLLSTQPSETLASSDSFASTQPTHSWKVGDKCMAVWSEDGQCYEAEIEEIDEENGTAAITFAGYGNAEVTPLLNLKPVEEGRKAKEDSGNKPMSKKEMIAQQREYKKKKALKKAQRIKELEQEREDQKVKWQQFNNRAYSKNKKGQVKRSIFASPESVTGKVGVGTCGIADKPMTQYQDTSKYNVRHLMPQ,soluble
16,MTSTGPETSETPGATTQRHGFGIDVGGSGIKGGIVDLDTGQLIGDRIKLLTPQPATPLAVAKTIAEVVNGFGWRGPLGVTYPGVVTHGVVRTAANVDKSWIGTNARDTIGAELGGQQVTILNDADAAGLAETRYGAGKNNPGLVVLLTFGTGIGSAVIHNGTLIPNTEFGHLEVGGKEAEERAASSVKEKNDWTYPKWAKQVIRVLIAIENAIWPDLFIAGGGISRKADKWVPLLENRTPVVPAALQNTAGIVGAAMASVADTTH,not soluble
17,MNIVITGGTGLIGRHLIPRLLELGHQITVVTRNPQKASSVLGPRVTLWQGLADQSNLNGVDAVINLAGEPIADKRWTHEQKERLCQSRWNITQKLVDLINASDTPPSVLISGSATGYYGDLGEVVVTEEEPPHNEFTHKLCARWEEIACRAQSDKTRVCLLRTGVVLAPDGGILGKMLPPFRLGLGGPIGSGRQYLAWIHIDDMVNGILWLLDNELRGPFNMVSPYPVRNEQFAHALGHALHRPAILRVPATAIRLLMGESSVLVLGGQRALPKRLEEAGFAFRWYDLEEALADVVR,soluble
18,MLNIFTTISKINITSLAIGCFDGMHLGHLKLVKCLDENGALLVINKFKGQFLCSNRQKEEISGKKVIEVDFESIKSLDGRDFLSFLKKEFVNLKFIVVGYDFSFGKNRAYNAKDIESLSGIKTIIVDEFSIDGIGVHASLIKDFLSKANLQKAKEFLGRDYSIKGKMIKGQGLGSKELFATINLDCEGYFLPQNGVYVTLLKSQRKTYKSVSFLGVRSSDENFAIESHILEELGENFTQGEFFELEFISFLRENQKFQDLKKLKNQIAKDIEQARELLRKNDER,not soluble
19,MKHHHHHHHHGGLVPRGSHGMTKKIVAIWAQDEEGVIGKDNRLPWYLPAELQHFKETTLNHAILMGRVTFDGMGRRLLPKRETLILTRNPEEKIDGVATFHDVQSVLDWYSAQEKNLYIVGGKQIFQAFEPYLDEVIVTHIHARVEGDTYFPAEFDLSLFETVSSKFYTKDEKNPYDFTIQYRKRKEVLE,soluble
20,GTGAESTAERSARFERDALEFLDQMYSAALRMTRNPADAEDLVQETYAKAYASFHQFREGTNLKAWLYRILTNTFINSYRKKQREPQ,soluble
21,MLNARINQSIKCNQVRIHNVADKITWAELTKIEQLLKIIPQWEKLIKIQTTSKIFNSTSWVASWLETFWQKNWQLNVLIAWCDDELIAIVPLYYQQNNSILPMKVLYPLGQGEAEAQEISTEYTDILINEKFQEHLLPKIQQWILNLKADQLHWHALLHNSSTRNILADYEQTKSNEATRYIVNGLNWSLENLSKNMRSRYRRGLNQLDKLNATIDWVEQSDFDQYWQLMKKLHQKRWQGKNAKGAFCSDEFNQFHAKFREKSPKNIAMSAIWVNDTPIAIHYYFSDATTLYFYQSGWNESEYSHLSPGLILHLWTIENNNKPYYDFMMGKKKDSYKAKFATLQQPMYNITLTFSPIKLLFYSVFEKIKVKYLSA,not soluble
